Results as given in US9616106 (NEUMEDICINES, dated 2017).

Legend:
Assay in all cases: cell-based or functional assay
[1] = biological target: rat IL-12 receptor on rat PBMC (rat)
[2] = biological target: murine IL-12 receptor on mouse CD14- PBMC (mouse) (UniProt P97378)
[3] = biological target: human IL-12 receptor on human CD14- PBMC (human, UniProt Q99665 24-862)
Chain of human IL-12 receptor on human CD14- PBMC (Q99665 24-862): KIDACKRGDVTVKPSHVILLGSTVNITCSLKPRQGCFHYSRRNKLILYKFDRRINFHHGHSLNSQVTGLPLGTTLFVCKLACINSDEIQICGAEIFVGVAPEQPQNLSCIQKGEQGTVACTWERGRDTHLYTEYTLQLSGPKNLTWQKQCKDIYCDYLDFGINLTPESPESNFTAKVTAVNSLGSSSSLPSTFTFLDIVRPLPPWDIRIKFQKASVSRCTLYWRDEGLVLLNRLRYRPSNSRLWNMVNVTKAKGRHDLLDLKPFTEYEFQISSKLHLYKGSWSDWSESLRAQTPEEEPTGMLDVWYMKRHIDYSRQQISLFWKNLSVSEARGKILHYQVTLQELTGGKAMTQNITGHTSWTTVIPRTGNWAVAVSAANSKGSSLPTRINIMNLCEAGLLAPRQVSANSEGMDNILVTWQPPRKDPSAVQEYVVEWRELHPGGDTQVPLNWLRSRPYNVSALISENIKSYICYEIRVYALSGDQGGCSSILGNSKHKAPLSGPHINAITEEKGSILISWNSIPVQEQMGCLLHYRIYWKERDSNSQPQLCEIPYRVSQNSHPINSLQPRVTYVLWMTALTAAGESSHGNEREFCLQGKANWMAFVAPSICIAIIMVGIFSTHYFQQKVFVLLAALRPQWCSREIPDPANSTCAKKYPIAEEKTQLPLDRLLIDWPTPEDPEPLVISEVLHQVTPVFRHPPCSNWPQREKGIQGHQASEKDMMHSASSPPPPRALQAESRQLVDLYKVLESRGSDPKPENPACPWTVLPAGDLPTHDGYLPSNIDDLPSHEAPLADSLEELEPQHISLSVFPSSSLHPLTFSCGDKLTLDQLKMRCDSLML

Chain of murine IL-12 receptor on mouse CD14- PBMC (mouse) (P97378 24-874): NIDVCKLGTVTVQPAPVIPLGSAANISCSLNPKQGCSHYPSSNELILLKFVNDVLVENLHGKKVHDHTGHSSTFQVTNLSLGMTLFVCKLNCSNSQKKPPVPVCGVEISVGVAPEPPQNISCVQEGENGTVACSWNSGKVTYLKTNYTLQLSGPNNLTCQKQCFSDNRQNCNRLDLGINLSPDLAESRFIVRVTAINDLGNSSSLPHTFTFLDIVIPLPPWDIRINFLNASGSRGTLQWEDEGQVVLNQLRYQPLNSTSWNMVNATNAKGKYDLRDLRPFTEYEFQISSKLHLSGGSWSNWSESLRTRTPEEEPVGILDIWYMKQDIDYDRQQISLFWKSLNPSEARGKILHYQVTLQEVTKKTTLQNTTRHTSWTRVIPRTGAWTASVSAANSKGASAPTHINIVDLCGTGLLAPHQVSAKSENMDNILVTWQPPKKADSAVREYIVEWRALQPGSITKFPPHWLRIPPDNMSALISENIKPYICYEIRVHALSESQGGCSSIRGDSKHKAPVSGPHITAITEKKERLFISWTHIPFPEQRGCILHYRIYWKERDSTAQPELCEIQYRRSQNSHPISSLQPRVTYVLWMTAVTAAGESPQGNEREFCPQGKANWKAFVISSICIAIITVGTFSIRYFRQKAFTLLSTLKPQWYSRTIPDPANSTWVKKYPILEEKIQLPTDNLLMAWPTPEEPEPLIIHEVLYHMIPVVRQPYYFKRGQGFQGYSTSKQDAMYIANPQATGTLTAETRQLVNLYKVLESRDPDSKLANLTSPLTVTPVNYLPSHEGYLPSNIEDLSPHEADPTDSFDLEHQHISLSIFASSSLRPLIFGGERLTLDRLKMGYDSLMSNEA

- EC50 for stimulating IFN-γ secretion from PBMC (ELISA) [1]: > 1 nM
- EC50 for stimulating IFN-γ secretion from PBMC (ELISA) [2]: > 1 nM
- EC50 for stimulating IFN-γ secretion from CD14- PBMC (ELISA, 16 hours) [3]: 0.00251 nM
B1: recombinant human IL-12 (ligand)
chain 1: RNLPVATPDPGMFPCLHHSQNLLRAVSNMLQKARQTLEFYPCTSEEIDHEDITKDKTSTVEACLPLELTKNESCLNSRETSFITNGSCLASRKTSFMMALCLSSIYEDLKMYQVEFKTMNAKLLMDPKRQIFLDQNMLAVIDELMQALNFNSETVPQKSSLEEPDFYKTKIKLCILLHAFRIRAVTIDRVMSYLNAS
chain 2: IWELKKDVYVVELDWYPDAPGEMVVLTCDTPEEDGITWTLDQSSEVLGSGKTLTIQVKEFGDAGQYTCHKGGEVLSHSLLLLHKKEDGIWSTDILKDQKEPKNKTFLRCEAKNYSGRFTCWWLTTISTDLTFSVKSSRGSSDPQGVTCGAATLSAERVRGDNKEYEYSVECQEDSACPAAEESLPIEVMVDAVHKLKYENYTSSFFIRDIIKPDPPKNLQLKPLKNSRQVEVSWEYPDTWSTPHSYFSLTFCVQVQGKSKREKKDRVFTDKTSATVICRKNASISVRAQDRYYSSSWSEWASVPCS
modifications: glycosylated (produced in CHO cells)
